Data from the supplement of paper PMC5998384.

Tests used:
HeLa Kyoto [1] = assay: solubility in G1/S (NP-40 vs SDS abundance) (log2 ratio); higher = more soluble; settings: cell cycle stage: G1/S
HeLa Kyoto [2] = assay: melting temperature (median over replicates), in situ; higher = more thermally stable
HeLa Kyoto [3] = assay: solubility change mitosis vs G1/S (difference of NP-40 vs SDS log2 ratios) (log2 ratio difference); higher = more soluble in mitosis
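For melting temperature (median over replicates), in situ in this document: HeLa Kyoto cells synchronized by double thymidine or nocodazole block, proteins quantified by TMT10plex mass spectrometry, three independent biological replicates.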
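For solubility change mitosis vs G1/S (difference of NP-40 vs SDS log2 ratios) in this document: synchronized HeLa Kyoto cells (double thymidine block for G1/S, nocodazole release for mitosis), protein amounts in NP-40 versus SDS lysates quantified by mass spectrometry, three biological replicates.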
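For solubility in G1/S (NP-40 vs SDS abundance) in this document: HeLa Kyoto cells arrested at G1/S by double thymidine block, proteins quantified by TMT10plex mass spectrometry in mild NP-40 versus SDS extracts, three biological replicates.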

Sequence	solubility in G1/S (log2) (HeLa Kyoto [1])	melting temperature (HeLa Kyoto [2]; cell cycle stage: G1/S) [°C]	melting temperature (HeLa Kyoto [2]; cell cycle stage: mitosis) [°C]	solubility change mitosis (log2) (HeLa Kyoto [3])
MMATPNQTACNAESPVALEEAKTSGAPGSPQTPPERHDSGGSLPLTPRMESHSEDEDLAGAVGGLGWNSRSPRTQSPGGCSAEAVLARKKHRRRPSKRKRHWRPYLELSWAEKQQRDERQSQRASRVREEMFAKGQPVAPYNTTQFLMNDRDPEEPNLDVPHGISHPGSSGESEAGDSDGRGRAHGEFQRKDFSETYERFHTESLQGRSKQELVRDYLELEKRLSQAEEETRRLQQLQACTGQQSCRQVEELAAEVQRLRTENQRLRQENQMWNREGCRCDEEPGT [HEXIM2]	0.492	54.6	53.4	0.139
MNRLPDDYDPYAVEEPSDEEPALSSSEDEVDVLLHGTPDQKRKLIRECLTGESESSSEDEFEKEMEAELNSTMKTMEDKLSSLGTGSSSGNGKVATAPTRYYDDIYFDSDSEDEDRAVQVTKKKKKKQHKIPTNDELLYDPEKDNRDQAWVDAQRRGYHGLGPQRSRQQQPVPNSDAVLNCPACMTTLCLDCQRHESYKTQYRAMFVMNCSINKEEVLRYKASENRKKRRVHKKMRSNREDAAEKAETDVEEIYHPVMCTECSTEVAVYDKDEVFHFFNVLASHS [EAPP]	0.159	50.3		0.14
MNVALQELGAGSNMVEYKRATLRDEDAPETPVEGGASPDAMEVGKGASPFSPGPSPGMTPGTPRSSGLFWRVTCPHLRSISGLCSRTMVGFQKGTRQLLGSRTQLELVLAGASLLLAALLLGCLVALGVQYHRDPSHSTCLTEACIRVAGKILESLDRGVSPCEDFYQFSCGGWIRRNPLPDGRSRWNTFNSLWDQNQAILKHLLENTTFNSSSEAEQKTQRFYLSCLQVERIEELGAQPLRDLIEKIGGWNITGPWDQDNFMEVLKAVAGTYRATPFFTVYISADSKSSNSNVIQVDQSGLFLPSRDYYLNRTANEKVLTAYLDYMEELGMLLGGRPTSTREQMQQVLELEIQLANITVPQDQRRDEEKIYHKMSISELQALAPSMDWLEFLSFLLSPLELSDSEPVVVYGMDYLQQVSELINRTEPSILNNYLIWNLVQKTTSSLDRRFESAQEKLLETLYGTKKSCVPRWQTCISNTDDALGFALGSLFVKATFDRQSKEIAEGMISEIRTAFEEALGQLVWMDEKTRQAAKEKADAIYDMIGFPDFILEPKELDDVYDGYEISEDSFFQNMLNLYNFSAKVMADQLRKPPSRDQWSMTPQTVNAYYLPTKNEIVFPAGILQAPFYARNHPKALNFGGIGVVMGHELTHAFDDQGREYDKEGNLRPWWQNESLAAFRNHTACMEEQYNQYQVNGERLNGRQTLGENIADNGGLKAAYNAYKAWLRKHGEEQQLPAVGLTNHQLFFVGFAQVWCSVRTPESSHEGLVTDPHSPARFRVLGTLSNSRDFLRHFGCPVGSPMNPGQLCEVW [ECE2]	0.0962		50.7	-0.189
MPNFCAAPNCTRKSTQSDLAFFRFPRDPARCQKWVENCRRADLEDKTPDQLNKHYRLCAKHFETSMICRTSPYRTVLRDNAIPTIFDLTSHLNNPHSRHRKRIKELSEDEIRTLKQKKIDETSEQEQKHKETNNSNAQNPSEEEGEGQDEDILPLTLEEKENKEYLKSLFEILILMGKQNIPLDGHEADEIPEGLFTPDNFQALLECRINSGEEVLRKRFETTAVNTLFCSKTQQRQMLEICESCIREETLREVRDSHFFSIITDDVVDIAGEEHLPVLVRFVDESHNLREEFIGFLPYEADAEILAVKFHTMITEKWGLNMEYCRGQAYIVSSGFSSKMKVVASRLLEKYPQAIYTLCSSCALNMWLAKSVPVMGVSVALGTIEEVCSFFHRSPQLLLELDNVISVLFQNSKERGKELKEICHSQWTGRHDAFEILVELLQALVLCLDGINSDTNIRWNNYIAGRAFVLCSAVSDFDFIVTIVVLKNVLSFTRAFGKNLQGQTSDVFFAAGSLTAVLHSLNEVMENIEVYHEFWFEEATNLATKLDIQMKLPGKFRRAHQGNLESQLTSESYYKETLSVPTVEHIIQELKDIFSEQHLKALKCLSLVPSVMGQLKFNTSEEHHADMYRSDLPNPDTLSAELHCWRIKWKHRGKDIELPSTIYEALHLPDIKFFPNVYALLKVLCILPVMKVENERYENGRKRLKAYLRNTLTDQRSSNLALLNINFDIKHDLDLMVDTYIKLYTSKSELPTDNSETVENT [PRKRIR]	0.246	51.3	50.9	-0.0658
MPPERRRRMKLDRRTGAKPKRKPGMRPDWKAGAGPGGPPQKPAPSSQRKPPARPSAAAAAIAVAAAEEERRLRQRNRLRLEEDKPAVERCLEELVFGDVENDEDALLRRLRGPRVQEHEDSGDSEVENEAKGNFPPQKKPVWVDEEDEDEEMVDMMNNRFRKDMMKNASESKLSKDNLKKRLKEEFQHAMGGVPAWAETTKRKTSSDDESEEDEDDLLQRTGNFISTSTSLPRGILKMKNCQHANAERPTVARISSVQFHPGAQIVMVAGLDNAVSLFQVDGKTNPKIQSIYLERFPIFKACFSANGEEVLATSTHSKVLYVYDMLAGKLIPVHQVRGLKEKIVRSFEVSPDGSFLLINGIAGYLHLLAMKTKELIGSMKINGRVAASTFSSDSKKVYASSGDGEVYVWDVNSRKCLNRFVDEGSLYGLSIATSRNGQYVACGSNCGVVNIYNQDSCLQETNPKPIKAIMNLVTGVTSLTFNPTTEILAIASEKMKEAVRLVHLPSCTVFSNFPVIKNKNISHVHTMDFSPRSGYFALGNEKGKALMYRLHHYSDF [UTP18]	-2.03		52.7	0.81
MPVTHRKSDASDMNSDTSPSCRLRAFSRGGSLESRSSSSRSRSFTLDDESLKYLTHEEKDVLLFFEETIDSLDEDFEEPVLCDGGVCCLCSPSLEESTSSPSEPEDVIDLVQPAPGAGEAEGLPEGTQAAGPAPAGKEHRKQDAETPPPPDPPAPETLLAPPPLPSTPDPPRRELRAPSPPVEHPRLLRSVPTPLVMAQKISERMAGNEALSPTSPFREGRPGEWRTPAARGPRSGDPGPGPSHPAQPKAPRFPSNIIVTNGAAREPRRTLSRAAVSVQERRAQVLATIHGHAGAFPAAGDAGEGAPGGGSSPERVARGRGLPGPAESLRAGGQAPRGPALANGFPSAHEALKSAPSSFAPAGKSLCFRPGPALPSTRARQSFPGPRQPNGAQDWRRADSLPRPQGITVQFAGRGSSEEARREALRKLGLLRESS [PROSER2]	0.405	48.6	51.3	-0.0862
MQNEPLTPGYHGFPARDSQGNQEPTTTPDAMVQPFTTIPFPPPPQNGIPTEYGVPHTQDYAGQTGEHNLTLYGSTQAHGEQSSNSPSTQNGSLTTEGGAQTDGQQSQTQSSENSESKSTPKRLHVSNIPFRFRDPDLRQMFGQFGKILDVEIIFNERGSKGFGFVTFENSADADRAREKLHGTVVEGRKIEVNNATARVMTNKKMVTPYANGWKLSPVVGAVYGPELYAASSFQADVSLGNDAAVPLSGRGGINTYIPLISLPLVPGFPYPTAATTAAAFRGAHLRGRGRTVYGAVRAVPPTAIPAYPGVVYQDGFYGADLYGGYAAYRYAQPATATAATAAAAAAAAYSDGYGRVYTADPYHALAPAASYGVGAVASLYRGGYSRFAPY [RBFOX2]	0.223	49.8		0.0624
MRDYDEVTAFLGEWGPFQRLIFFLLSASIIPNGFTGLSSVFLIATPEHRCRVPDAANLSSAWRNHTVPLRLRDGREVPHSCRRYRLATIANFSALGLEPGRDVDLGQLEQESCLDGWEFSQDVYLSTIVTEWNLVCEDDWKAPLTISLFFVGVLLGSFISGQLSDRFGRKNVLFVTMGMQTGFSFLQIFSKNFEMFVVLFVLVGMGQISNYVAAFVLGTEILGKSVRIIFSTLGVCIFYAFGYMVLPLFAYFIRDWRMLLVALTMPGVLCVALWWFIPESPRWLISQGRFEEAEVIIRKAAKANGIVVPSTIFDPSELQDLSSKKQQSHNILDLLRTWNIRMVTIMSIMLWMTISVGYFGLSLDTPNLHGDIFVNCFLSAMVEVPAYVLAWLLLQYLPRRYSMATALFLGGSVLLFMQLVPPDLYYLATVLVMVGKFGVTAAFSMVYVYTAELYPTVVRNMGVGVSSTASRLGSILSPYFVYLGAYDRFLPYILMGSLTILTAILTLFLPESFGTPLPDTIDQMLRVKGMKHRKTPSHTRMLKDGQERPTILKSTAF [SLC22A5]	0.228	59.7	56.9	-0.137
MRESALERGPVPEAPAGGPVHAVTVVTLLEKLASMLETLRERQGGLARRQGGLAGSVRRIQSGLGALSRSHDTTSNTLAQLLAKAERVSSHANAAQERAVRRAAQVQRLEANHGLLVARGKLHVLLFKEEGEVPASAFQKAPEPLGPADQSELGPEQLEAEVGESSDEEPVESRAQRLRRTGLQKVQSLRRALSGRKGPAAPPPTPVKPPRLGPGRSAEAQPEAQPALEPTLEPEPPQDTEEDPGRPGAAEEALLQMESVA [PRKCDBP]	0.305	53.9	52.8	0.338
MRKIDLCLSSEGSEVILATSSDEKHPPENIIDGNPETFWTTTGMFPQEFIICFHKHVRIERLVIQSYFVQTLKIEKSTSKEPVDFEQWIEKDLVHTEGQLQNEEIVAHDGSATYLRFIIVSAFDHFASVHSVSAEGTVVSNLSS [HSPB11]	0.137	53.3	55.1	-0.328
MRLRVRLLKRTWPLEVPETEPTLGHLRSHLRQSLLCTWGYSSNTRFTITLNYKDPLTGDEETLASYGIVSGDLICLILQDDIPAPNIPSSTDSEHSSLQNNEQPSLATSSNQTSMQDEQPSDSFQGQAAQSGVWNDDSMLGPSQNFEAESIQDNAHMAEGTGFYPSEPMLCSESVEGQVPHSLETLYQSADCSDANDALIVLIHLLMLESGYIPQGTEAKALSMPEKWKLSGVYKLQYMHPLCEGSSATLTCVPLGNLIVVNATLKINNEIRSVKRLQLLPESFICKEKLGENVANIYKDLQKLSRLFKDQLVYPLLAFTRQALNLPDVFGLVVLPLELKLRIFRLLDVRSVLSLSAVCRDLFTASNDPLLWRFLYLRDFRDNTVRVQDTDWKELYRKRHIQRKESPKGRFVMLLPSSTHTIPFYPNPLHPRPFPSSRLPPGIIGGEYDQRPTLPYVGDPISSLIPGPGETPSQFPPLRPRFDPVGPLPGPNPILPGRGGPNDRFPFRPSRGRPTDGRLSFM [FBXO7]	0.02	48.1	49.7	-0.126
MRPLLGLLLVFAGCTFALYLLSTRLPRGRRLGSTEEAGGRSLWFPSDLAELRELSEVLREYRKEHQAYVFLLFCGAYLYKQGFAIPGSSFLNVLAGALFGPWLGLLLCCVLTSVGATCCYLLSSIFGKQLVVSYFPDKVALLQRKVEENRNSLFFFLLFLRLFPMTPNWFLNLSAPILNIPIVQFFFSVLIGLIPYNFICVQTGSILSTLTSLDALFSWDTVFKLLAIAMVALIPGTLIKKFSQKHLQLNETSTANHIHSRKDT [TMEM41A]	0.0255	55.1	55.5	-0.205
MRRAAGMEDFSAEEEESWYDQQDLEQDLHLAAELGKTLLERNKELEGSLQQMYSTNEEQVQEIEYLTKQLDTLRHVNEQHAKVYEQLDLTARDLELTNHRLVLESKAAQQKIHGLTETIERLQAQVEELQAQVEQLRGLEQLRVLREKRERRRTIHTFPCLKELCTSPRCKDAFRLHSSSLELGPRPLEQENERLQTLVGALRSQVSQERQRKERAEREYTAVLQEYSELERQLCEMEACRLRVQELEAELLELQQMKQAKTYLLGPDDHLAEALLAPLTQAPEADDPQPGRGDDLGAQDGVSSPAASPGHVVRKSCSDTALNAIVAKDPASRHAGNLTLHANSVRKRGMSILREVDEQYHALLEKYEELLSKCRQHGAGVRHAGVQTSRPISRDSSWRDLRGGEEGQGEVKAGEKSLSQHVEAVDKRLEQSQPEYKALFKEIFSRIQKTKADINATKVKTHSSK [CDR2L]	0.549	52.5		-0.204
MSATRAKKVKMATKSCPECDQQVPVACKSCPCGYIFISRKLLNAKHSEKSPPSTENKHEAKRRRTERVRREKINSTVNKDLENRKRSRSNSHSDHIRRGRGRPKSASAKKHEEEREKQEKEIDIYANLSDEKAFVFSVALAEINRKIINQRLIL [C16ORF87]	0.019		50.6	0.198
